Assay [1] has as its target WipA411 (WipA 33-411) (Legionella pneumophila) (UniProt Q5ZS02). Description: SEC-MALS.
For assay [2], the target named is WipA (IcmW-interacting protein A; lpg2718), full-length protein (Legionella pneumophila) (UniProt Q5ZS02). Description: SEC-MALS. A general note: In gel filtration, larger molecules generally elute earlier.

Usually stoichiometry N stands for the number of molecules, sites or subunits per partner or assembly. Turning to “WipA411 (WipA 33-411) (from UniProt Q5ZS02 33-411) (domain or fragment)”, in assay [1], the stoichiometry N stood at 2.

In the case of “WipA (IcmW-interacting protein A; lpg2718), full-length protein (from UniProt Q5ZS02 1-520) (enzyme)”, in assay [2], the stoichiometry N is 2.

For the origin of these results see PMC5454105.
